# Biological target: C-terminally mKGC-tagged ORF30 (ORF30-mKGC)
# Test: BiFC assay, flow cytometry
# Conditions: 293T cells; co-transfected with mCherry transfection control; three independent samples; ASC10mut protein expression was not confirmed by Western blotting; parent: 99.8
row,Substance,response [%]
1,N-terminally mKGN-tagged ORF18 (mKGN-ORF18) WT P156A; R158A; L159A,14.4

# Same assay, conditions: 293T cells; co-transfected with mCherry transfection control; three independent samples; parent: 99.8
row,Substance,response [%]
1,N-terminally mKGN-tagged ORF18 (mKGN-ORF18) WT L142A; D144A; G145A; N146A,81.3
2,N-terminally mKGN-tagged ORF18 (mKGN-ORF18) WT H41A; L44A,16.2
3,N-terminally mKGN-tagged ORF18 (mKGN-ORF18) WT L151A; G152A; S153A,72.6
4,N-terminally mKGN-tagged ORF18 (mKGN-ORF18) WT C166A; L167A; W170A; G171A,14.2
5,N-terminally mKGN-tagged ORF18 (mKGN-ORF18) WT E36A; L37A; R38A,9.76
6,N-terminally mKGN-tagged ORF18 (mKGN-ORF18) WT F187A; L191A,32.7
7,N-terminally mKGN-tagged ORF18 (mKGN-ORF18) WT G3A,99.8
8,N-terminally mKGN-tagged ORF18 (mKGN-ORF18) WT P14A; G15A; L19A,14.1
9,N-terminally mKGN-tagged ORF18 (mKGN-ORF18) WT N53A; Y55A; L56A,39.9
10,N-terminally mKGN-tagged ORF18 (mKGN-ORF18) WT E176A; V179A; R180A,75.3
11,N-terminally mKGN-tagged ORF18 (mKGN-ORF18) WT G195A; L197A,87.5
12,N-terminally mKGN-tagged ORF18 (mKGN-ORF18) WT L24A; L29A,16.7

# Same assay, conditions: 293T cells; co-transfected with mCherry transfection control; three independent samples; parent: 99.9
row,Substance,response [%]
1,N-terminally mKGN-tagged ORF18 (mKGN-ORF18) WT L19A,99.1
2,N-terminally mKGN-tagged ORF18 (mKGN-ORF18) WT H41A,47.4
3,N-terminally mKGN-tagged ORF18 (mKGN-ORF18) WT R158A,87.3
4,N-terminally mKGN-tagged ORF18 (mKGN-ORF18) WT E36A,55.9
5,N-terminally mKGN-tagged ORF18 (mKGN-ORF18) WT L159A,99.9
6,N-terminally mKGN-tagged ORF18 (mKGN-ORF18) WT W170A,25.6
7,N-terminally mKGN-tagged ORF18 (mKGN-ORF18) WT L167A,96.6
8,N-terminally mKGN-tagged ORF18 (mKGN-ORF18) WT C166A,99.6
9,N-terminally mKGN-tagged ORF18 (mKGN-ORF18) WT L24A,93.4
10,N-terminally mKGN-tagged ORF18 (mKGN-ORF18) WT G171A,98.6
11,N-terminally mKGN-tagged ORF18 (mKGN-ORF18) WT P14A,99.9
12,N-terminally mKGN-tagged ORF18 (mKGN-ORF18) WT P156A,99.8
13,N-terminally mKGN-tagged ORF18 (mKGN-ORF18) WT L44A,94.7
14,N-terminally mKGN-tagged ORF18 (mKGN-ORF18) WT L29A,58.8
15,N-terminally mKGN-tagged ORF18 (mKGN-ORF18) WT G15A,99.6
16,N-terminally mKGN-tagged ORF18 (mKGN-ORF18) WT L37A,98.7

# Biological target: C-terminally mKGC-tagged ORF30 (ORF30-mKGC) (Kaposi's sarcoma-associated herpesvirus (KSHV; BAC16, strain JSC-1))
# Test: split reporter (BiFC, NanoBiT); split mKusabira-Green (mKGN/mKGC) BiFC in 293T cells, co-transfected by the calcium phosphate method, all combinations of tag type and location; cells fixed two days after transfection, gated by FSC/SSC, ratio of mKG-positive cells by flow cytometry
# Conditions: not given
row,Substance,mKG-positive cells (%)
1,N-terminally mKGN-tagged ORF18 (mKGN-ORF18) WT (natural protein),70

# Biological target: p50-mKGC (pCONT-2) (UniProt P19838)
# Test: split reporter (BiFC, NanoBiT); split mKusabira-Green BiFC in 293T cells, lipofection of mKGN-ORF18 alanine-scanning mutants with ORF30-mKGC and mCherry as transfection control; mCherry-positive cells gated, % mKG-positive cells by flow cytometry; block mutants under 20% and single mutants under 60% counted as binding-negative
# Conditions: not given
# Sequence of UniProt P19838 (P19838 1-433): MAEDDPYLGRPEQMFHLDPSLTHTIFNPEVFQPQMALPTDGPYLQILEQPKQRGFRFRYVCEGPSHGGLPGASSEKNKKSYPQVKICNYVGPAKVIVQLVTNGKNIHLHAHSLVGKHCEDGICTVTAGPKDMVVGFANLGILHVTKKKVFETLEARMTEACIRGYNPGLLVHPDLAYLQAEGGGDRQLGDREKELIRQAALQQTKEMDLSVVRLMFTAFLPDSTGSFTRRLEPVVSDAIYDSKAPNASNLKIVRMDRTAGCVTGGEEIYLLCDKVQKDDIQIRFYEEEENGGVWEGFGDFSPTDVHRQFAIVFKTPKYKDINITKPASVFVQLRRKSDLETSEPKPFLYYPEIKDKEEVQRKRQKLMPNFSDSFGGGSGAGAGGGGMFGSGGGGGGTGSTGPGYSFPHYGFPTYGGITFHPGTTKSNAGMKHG
row,mKG-positive cells (%),Substance
1,> 90,p65-mKGN (pCONT-1) (from UniProt Q04206 1-551) (natural protein)

# From PMC9456320
